Measured values: PMC2115937

Molecular target: epidermal growth factor receptor (EGF receptor kinase), rat liver (rat (endogenous in rat liver))
Experiment: polyethylene glycol precipitation of receptor-bound radioligand

Substance: epidermal growth factor (EGF) (from UniProt P01132 977-1029) (ligand)
- percent of 125I-EGF in endosomes that is receptor bound (10 ug EGF injected): 77%
